Experimental data from paper PMC4336627.

Target: Flag-6xHis-TET2^CD (human)
Experiment: pull-down

stoichiometry N: 1
Substance: Flag-WT1 (purified recombinant) (from UniProt P19544 1-449) (natural protein)
